The text below walks through data of patent US20240190989A1 (BEIGENE SWITZERLAND, published 2024).

Assay [1] concerns the target T1, full-length human CEA on cells (MKN45, LOVO, L929/huCEA, CT26/CEA, CT26-OS8-CEA) (human, UniProt P06731 35-685).
T1 construct: also called CEACAM5; native CEA
T1 sequence: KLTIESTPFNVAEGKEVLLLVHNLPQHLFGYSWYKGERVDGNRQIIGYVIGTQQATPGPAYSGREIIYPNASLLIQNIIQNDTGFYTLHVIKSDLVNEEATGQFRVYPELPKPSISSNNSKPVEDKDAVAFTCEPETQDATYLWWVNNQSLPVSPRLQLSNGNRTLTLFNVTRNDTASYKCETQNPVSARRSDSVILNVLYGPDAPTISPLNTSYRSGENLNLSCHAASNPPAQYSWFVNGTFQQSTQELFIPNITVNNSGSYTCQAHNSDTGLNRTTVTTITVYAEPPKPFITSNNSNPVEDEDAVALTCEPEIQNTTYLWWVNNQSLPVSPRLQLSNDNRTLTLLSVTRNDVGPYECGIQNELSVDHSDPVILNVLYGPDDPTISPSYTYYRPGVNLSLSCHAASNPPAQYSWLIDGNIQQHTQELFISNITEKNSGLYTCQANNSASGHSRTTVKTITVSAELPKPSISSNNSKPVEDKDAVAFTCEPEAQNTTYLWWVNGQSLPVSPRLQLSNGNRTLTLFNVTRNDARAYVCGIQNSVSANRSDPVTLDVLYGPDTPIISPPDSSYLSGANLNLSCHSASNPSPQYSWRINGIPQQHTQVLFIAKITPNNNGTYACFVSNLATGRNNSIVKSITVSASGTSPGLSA
Description: flow cytometry on MKN45 cells, no soluble CEA. In general terms: Flow cytometry measures light scatter and fluorescence of single cells or particles in a stream.

For assay [2], the target named is T2, CEACAM3 transiently expressed on HEK293 cells (Homo sapiens (Human), UniProt P40198 35-252).
T2 sequence: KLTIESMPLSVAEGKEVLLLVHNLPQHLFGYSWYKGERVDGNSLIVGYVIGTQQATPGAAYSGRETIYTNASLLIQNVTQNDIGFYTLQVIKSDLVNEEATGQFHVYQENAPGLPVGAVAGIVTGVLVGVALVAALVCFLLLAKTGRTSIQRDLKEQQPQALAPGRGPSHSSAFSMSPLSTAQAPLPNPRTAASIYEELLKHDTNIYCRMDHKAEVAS
The experiment in a line: flow cytometry on transfected HEK293 cells.

The target of assay [3] is T3, CEACAM1 (Cat. No. 10822-H08H, Sino Biological) (Homo sapiens (Human), UniProt P13688 35-428).
T3 construct: Bought protein
T3 sequence: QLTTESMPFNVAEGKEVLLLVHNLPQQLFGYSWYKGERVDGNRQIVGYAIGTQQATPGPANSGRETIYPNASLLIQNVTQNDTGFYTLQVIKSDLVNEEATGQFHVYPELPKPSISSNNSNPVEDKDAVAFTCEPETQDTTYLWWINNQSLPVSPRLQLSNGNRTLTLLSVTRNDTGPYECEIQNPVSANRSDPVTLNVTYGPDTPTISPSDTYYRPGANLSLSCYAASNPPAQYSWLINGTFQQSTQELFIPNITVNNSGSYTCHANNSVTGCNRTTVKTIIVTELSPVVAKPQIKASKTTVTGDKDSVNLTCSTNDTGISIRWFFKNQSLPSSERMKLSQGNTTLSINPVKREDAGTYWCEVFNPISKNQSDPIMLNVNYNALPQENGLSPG
The experiment in a line: antigen ELISA, antigens coated at 10 µg/ml, anti-human Fc-HRP [panel A]. A general note: ELISA stands for enzyme-linked immunosorbent assay.

Assay [4] addresses T4, human CEACAM6, amino acids 1-320 with C-terminal 6xHis tag (human, UniProt P40199 35-320).
T4 sequence: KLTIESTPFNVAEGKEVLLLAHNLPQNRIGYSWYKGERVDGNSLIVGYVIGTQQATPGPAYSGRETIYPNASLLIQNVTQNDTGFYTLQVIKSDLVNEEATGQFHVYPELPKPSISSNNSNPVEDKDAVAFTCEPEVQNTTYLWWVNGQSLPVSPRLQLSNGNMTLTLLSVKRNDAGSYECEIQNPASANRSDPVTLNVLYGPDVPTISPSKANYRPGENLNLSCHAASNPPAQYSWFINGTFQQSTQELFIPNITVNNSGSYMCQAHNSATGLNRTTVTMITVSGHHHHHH
Described as above.

For assay [5], the target named is T5, CEACAM7 transiently expressed on HEK293 cells (Homo sapiens (Human), UniProt Q14002 36-242).
T5 sequence: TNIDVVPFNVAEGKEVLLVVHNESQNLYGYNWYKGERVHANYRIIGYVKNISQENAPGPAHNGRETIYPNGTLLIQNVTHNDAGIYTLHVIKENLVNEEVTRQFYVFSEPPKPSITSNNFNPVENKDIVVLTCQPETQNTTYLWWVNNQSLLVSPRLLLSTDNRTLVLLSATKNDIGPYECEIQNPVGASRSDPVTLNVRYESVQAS
Description: flow cytometry on transiently transfected HEK293 cells [panel B].

Assay [6] concerns the target T6, CEACAM8 transiently expressed on HEK293 cells (Homo sapiens (Human), UniProt P31997 35-320).
T6 sequence: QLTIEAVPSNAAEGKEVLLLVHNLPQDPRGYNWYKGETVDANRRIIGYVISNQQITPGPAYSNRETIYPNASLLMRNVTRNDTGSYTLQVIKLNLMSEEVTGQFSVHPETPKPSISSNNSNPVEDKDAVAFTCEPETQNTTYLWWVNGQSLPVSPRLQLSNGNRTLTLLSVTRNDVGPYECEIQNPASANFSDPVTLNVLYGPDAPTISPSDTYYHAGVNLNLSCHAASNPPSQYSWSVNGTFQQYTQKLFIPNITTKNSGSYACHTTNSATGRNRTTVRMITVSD
The description is as above.

Assay [7] addresses T7, human CD137 ECD-mIgG2a (human).
T7 construct: ECD 24-183 of huCD137 fused to mouse IgG2a Fc; also called huCD137-mIgG2a; huCD137
Description: SPR, Format A-CEAxCD137. For orientation: In SPR one partner is held on a chip, and binding of the other changes the refractive index at the surface.

Assay [8] concerns the target T7, human CD137 ECD-mIgG2a. Description: SPR, A-CEAxCD137 format.
Assay [9] concerns the target T8, full-length human CD137 on cells (Hut78/huCD137, HEK293 transfectants, JK-NFKB-CD137) (human, UniProt Q07011 24-255).
T8 construct: also called native CD137; TNFRSF9
The experiment in a line: flow cytometry on Hut78/huCD137 cells.

T7 sequence (chain, as listed by the source limits assumed): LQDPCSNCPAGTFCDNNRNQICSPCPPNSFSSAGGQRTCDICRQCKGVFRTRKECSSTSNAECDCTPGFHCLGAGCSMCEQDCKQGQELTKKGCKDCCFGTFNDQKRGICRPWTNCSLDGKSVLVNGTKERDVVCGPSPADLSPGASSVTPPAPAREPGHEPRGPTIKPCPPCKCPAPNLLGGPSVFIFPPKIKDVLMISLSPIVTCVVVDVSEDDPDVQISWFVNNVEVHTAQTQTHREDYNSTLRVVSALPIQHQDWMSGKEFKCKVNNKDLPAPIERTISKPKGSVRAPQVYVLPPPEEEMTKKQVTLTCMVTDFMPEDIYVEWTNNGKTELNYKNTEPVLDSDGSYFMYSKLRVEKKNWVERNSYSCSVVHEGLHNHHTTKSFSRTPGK
T8 sequence (Q07011 24-255 limits assumed): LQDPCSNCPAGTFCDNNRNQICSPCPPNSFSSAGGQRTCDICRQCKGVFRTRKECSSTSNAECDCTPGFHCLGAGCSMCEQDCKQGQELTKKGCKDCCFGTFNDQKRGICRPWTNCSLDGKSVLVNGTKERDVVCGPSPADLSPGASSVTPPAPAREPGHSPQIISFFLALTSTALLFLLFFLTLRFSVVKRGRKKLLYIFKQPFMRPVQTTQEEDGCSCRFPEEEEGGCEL

B1: BGA113K (BGA113 with Y57K in the heavy chain) (antibody, human IgG1, V domains shown)
VH: QVQLVQSGAEVKKPGASVKVSCKASGYIFTSYYLHWVRQAPGQGLEWIGYINPQTGKTSYAQKFQGRVTMTRDTSTSTVYMELSSLRSEDTAVYYCAREYGNYNYPLDYWGQGTLVTVSS
VL: DIQMTQSPSSLSASVGDRVTITCRASENQYGYLAWYQQKPGKVPKLLIYNYKNLVEGVPSRFSGSGSGTDFTLTISSLQPEDVATYYCQHHLGTPYTFGQGTKVEIK
As a reminder, the EC50 (read off the curve) is the concentration at which the effect is half-maximal. Higher therefore signals weaker potency. For the molecule B1, the “EC50 (read off the curve)” value in assay [1] was roughly 0.8 µg/mL. For the same molecule, the binding result in assay [2] is “no binding (tested: 2 ug/ml)”; in assay [3], “no binding (tested: not shown)”; in assay [4] it was “no binding (tested: not shown)”; in assay [5], “no binding (tested: 2 µg/ml (not on the sheet))”; in assay [6], “no binding (tested: 2 µg/ml (not on the sheet))”.

B2: Format A-BGA-7556 (bispecific antibody, human IgG1, kappa)
heavy: QVQLVQSGAEVKKPGASVKVSCKASGYIFTSYYLHWVRQAPGQGLEWIGYINPQTGKTSYAQKFQGRVTMTRDTSTSTVYMELSSLRSEDTAVYYCAREYGNYNYPLDYWGQGTLVTVSSASTKGPSVFPLAPSSKSTSGGTAALGCLVKDYFPEPVTVSWNSGALTSGVHTFPAVLQSSGLYSLSSVVTVPSSSLGTQTYICNVNHKPSNTKVDKKVEPKSCDKTHTCPPCPAPPAAGPSVFLFPPKPKDTLMISRTPEVTCVVVDVSHEDPEVKFNWYVDGVEVHNAKTKPREEQYNSTYRVVSVLTVLHQDWLNGKEYKCKVSNKALAAPIEKTISKAKGQPREPQVYTLPPSREEMTKNQVSLTCLVKGFYPSDIAVEWESNGQPENNYKTTPPVLDSDGSFFLYSKLTVDKSRWQQGNVFSCSVMHEALHNHYTQKSLSLSPGKGGGGSEVQLLESGGGLVQPGGSLRLSCAASGFTLSAEDVGWVRQAPGKGLEWVSAILDFGGSTYYAESVKGRFTISRDNAKNTLYLQMSSLRAEDTAVYYCARVVYHAGGGVTFDYRGQGTQVTVSS
light: DIQMTQSPSSLSASVGDRVTITCRASENQYGYLAWYQQKPGKVPKLLIYNYKNLVEGVPSRFSGSGSGTDFTLTISSLQPEDVATYYCQHHLGTPYTFGQGTKVEIKRTVAAPSVFIFPPSDEQLKSGTASVVCLLNNFYPREAKVQWKVDNALQSGNSQESVTEQDSKDSTYSLSSTLTLSKADYEKHKVYACEVTHQGLSSPVTKSFNRGEC
notes: also called BGA-7556 Format A-CEAxCD137
Usually Kd stands for the concentration at which binding is half-saturated. Read a low Kd as higher affinity. In general, EC50 refers to the concentration giving half of the maximal effect. The low end stands for a more potent agent, the high end for a less potent agent. As to B2, the Kd in assay [7] is 669 nM; in assay [8], 649 nM. The molecule also registered an EC50 in [9] of 3.23 µg/mL.
